{
  "source": "patent US12281162",
  "about": "(LANOVA MEDICINES DEVELOPMENT, dated 2025)",
  "binders": {"B1": {"name": "58-H2L2 (antibody, V domains shown)", "VH": "QVQLVQSGAEVKKPGASVKVSCKASGYSFTGYYIHWVRQAPGQGLEWIGYISSYNAATSFNQKFKGRVTFTVDTSTSTVYMELSSLRSEDTAVYYCARTELRGPWFAYWGQGTLVTVSS", "VL": "DTQMTQSPSSLSASVGDRVTITCSASSSVSYMNWYQQKPGKAPKRLIYDTSKLASGVPSRFSGSGSGTDYTLTISSLQPEDFATYYCQQWSNNPLTFGQGTKLEIK", "notes": "humanized 58F9G10, VH v2 x VL v2"}, "B2": {"name": "58-H1L2 (antibody, V domains shown)", "VH": "B1 VH with I48M, F70M, V72R", "VL": "B1 VL", "notes": "humanized 58F9G10, VH v1 x VL v2"}, "B3": {"name": "58-H1L3 (antibody, V domains shown)", "VH": "B1 VH with I48M, F70M, V72R", "VL": "B1 VL with M4L, I21M, L77M", "notes": "humanized 58F9G10, VH v1 x VL v3"}, "B4": {"name": "58-H2L1 (antibody, V domains shown)", "VH": "B1 VH", "VL": "B1 VL with T2I, R45L, Y70F", "notes": "humanized 58F9G10, VH v2 x VL v1"}, "B5": {"name": "58-H2L3 (antibody, V domains shown)", "VH": "B1 VH", "VL": "B1 VL with M4L, I21M, L77M", "notes": "humanized 58F9G10, VH v2 x VL v3"}, "B6": {"name": "58-H3L2 (antibody, V domains shown)", "VH": "B1 VH with R38K, L83F", "VL": "B1 VL", "notes": "humanized 58F9G10, VH v3 x VL v2"}, "B7": {"name": "58-H3L3 (antibody, V domains shown)", "VH": "B1 VH with R38K, L83F", "VL": "B1 VL with M4L, I21M, L77M", "notes": "humanized 58F9G10, VH v3 x VL v3"}, "B8": {"name": "58-H4L1 (antibody, V domains shown)", "VH": "B1 VH with V20I, R38K, V68A, V79A, L83F, T91S", "VL": "B1 VL with T2I, R45L, Y70F", "notes": "humanized 58F9G10, VH v4 x VL v1"}, "B9": {"name": "58-H4L2 (antibody, V domains shown)", "VH": "B1 VH with V20I, R38K, V68A, V79A, L83F, T91S", "VL": "B1 VL", "notes": "humanized 58F9G10, VH v4 x VL v2"}, "B10": {"name": "58-H4L3 (antibody, V domains shown)", "VH": "B1 VH with V20I, R38K, V68A, V79A, L83F, T91S", "VL": "B1 VL with M4L, I21M, L77M", "notes": "humanized 58F9G10, VH v4 x VL v3"}, "B11": {"name": "2D3C12 (antibody, V domains shown)", "VH": "QVQLQQSGAELVRPGTSVKVSCKASGYAFINYLIEWIKQRPGQGLEWIGMINPGSGGTNYNEKFKDKATLTADKSSSTAYMQLSSLTSDDSAVYFCARNWDVWGQGTTLTVSS", "VL": "DVVMTQSPLSLPVSLGDQASVSCRSSQSLVHSTGNTYLHWYLQKPGQSPKLLIYKVSNRFSGVPDRFSGSGSGTDFTLKISRVEAEDLGVYFCSQSTHVPWTFGGGTKLEIK", "notes": "murine antibody from hybridoma supernatant"}, "B12": {"name": "34D4A10 (antibody, V domains shown)", "VH": "B11 VH with N31S", "VL": "B11 VL", "notes": "as for B11"}, "B13": {"name": "37B9C4 (antibody, V domains shown)", "VH": "EVNLEESGGGLVQPGGSMKLSCVASGFTFSDYWMNWVRQSPEKGLEWVAEIRLKSNNYATHYAESVKGRFTISRDDSKSSVYLQMNNLRAEDTGIYYCTRPLLWFRRYYAMDYWGQGTSVTVSS", "VL": "DIQMTQTTSSLSASLGDRITISCSASQGISNYLNWYQQKPDGTVKLLIYYTSSLHSGVPSRFSGSGSGTDYSLTISNLEPADIATYYCQQYSKLPFTFGSGTKLEIK", "notes": "as for B11"}, "B14": {"name": "6G10D9 (antibody, V domains shown)", "VH": "QVQLQQSGAELARPGASVKMSCKASGYTFTTYTMHWVKQRPGQGLEWLGYINPSSGYTNYNQKFKDKATLTAGKSSSTAYMQLSSLTSEDSAVYYCASLRSRGYFDYWGQGTTLTVSS", "VL": "DIVMTQSQTFMSTSVGDRVRITCKASQNVGTAVVWYQQKTGQSPRLLIYSASNRYTGVPDRFTGSGSGTDFTLTISNMQSEDLADFFCQQYSSYPYTFGGGTKLEIK", "notes": "as for B11"}, "B15": {"name": "38A10E9A11 (antibody, V domains shown)", "VH": "B14 VH with L48I, Q110R", "VL": "B14 VL with T9K, M11L, R20S, V34A, T40P, R45K, D85G, F86Y", "notes": "as for B11"}, "B16": {"name": "40A5B2 (antibody, V domains shown)", "VH": "EVQLQQSGPELVKPGASVKMSCKASGYTFTRNIMHWVKQKPGQGLEWIGYINPYNAGSKYNEKFKGKATLTSDISSSTAYMELSSLTSEDSAVYYCAREEVYYRYGAWFAYWGHGTLVTVSA", "VL": "DIVLTQSPASLAVSLGQRATISCRASQSVSTSSYSYMHWYQQKPGQPPKLLIKYASNLESGVPARFSGSGSGTDFTLNIHPVEEEDTATYYCQHSWEIPRTFGGGTKLEIK", "notes": "as for B11"}, "B17": {"name": "58F9G10 (antibody, V domains shown)", "VH": "EVQLQQSGPELVKTGASVKISCKASGYSFTGYYIHWVKQSHGKSLEWIGYISCYNGATSFNQKFKGKATFTVDTSSSTAYMQFNSLTSEDSAVYYCARTELRGPWFAYWGQGTLVTVSA", "VL": "QTVLTQSPAIMSASPGEKVTMTCSASSSVSYMNWYQQKSGTSPKRWIYDTSKLASGVPARFSGSGSGTSYSLTISSMEAEDAATYYCQQWSNNPLTFGAGTKLELK", "notes": "as for B11"}, "B18": {"name": "14C2A11C6 (antibody, V domains shown)", "VH": "QVHLQQSGAELARPGASVKMSCKASGYTFTTYTMHWVKQRPGQGLEWIGYINPNSAYTNYNQKFKDKATLTADKSSSTAYMQLSSLTSEDSAVYYCARRVLLLRVLDFFDYWGQGTTLTVSS", "VL": "DVQITQSPSYLAASPGETITINCRASKSINKYLTWYQEKPGKTNKLLIYSGSTLQSGIPSRFSGSGSGSDFTLTISSLEPEDFAMYYCQQHNEYPLTFGTGTKLELK", "notes": "murine antibody from hybridoma supernatant; also called 14C2A1106"}, "B19": {"name": "29B2C10 (antibody, V domains shown)", "VH": "EVQLQQSGPELVKPGASMKLSCKASGYSFTGYTMHWVKQSHGENLEWIGLINPYNGGTNYNQKFKGKATLTVDKSSSTAYMELLSLTSEDSAVYYCSRWGLRRAMDYWGQGTSVTVSS", "VL": "DIVMTQSQKFMSTSVGDRVSVTCKASQNVGSNVAWYQQKPGQSPKALIYSASYRYSGVPDRFTGNGSGTDFTLTISNVQSEDLAEYFCQQYYNSPWTFGGGTKLEIK", "notes": "as for B11"}, "B20": {"name": "14F3H2 (antibody, V domains shown)", "VH": "B19 VH with L20I, H35N, E43K, T58I, N59R, S97A", "VL": "B19 VL with S31T, N65S, Y92N, N93S", "notes": "as for B11"}, "B21": {"name": "26E1D12 (antibody, V domains shown)", "VH": "B19 VH with L20I, H35N, E43K, T71A, E82D", "VL": "B19 VL with N65S, Y92N", "notes": "as for B11"}, "B22": {"name": "29A7H11H4C12 (antibody, V domains shown)", "VH": "B19 VH with L20I", "VL": "B19 VL with V15I", "notes": "as for B11"}, "B23": {"name": "21C3C11B3 (antibody, V domains shown)", "VH": "B11 VH", "VL": "B11 VL", "notes": "as for B11"}, "B24": {"name": "34D3H1 (antibody, V domains shown)", "VH": "EVHLVESGGDLVKPGGSLKLSCAASGFTFSSYGMSWVRQTPDKRLEWVATISSGGSYTYYPDSVKGRFTISRDNAKNTLNLQMSSLKSEDTAMYYCARQGGDAMDYWGQGTSVTVSS", "VL": "DIVLTQSPATLSVTPGDSVSLSCRASQSINNNLHWYQQKSHESPRLLIKYASQSISGIPSRFSGSGSGTDFTLSINSVETEDFGMYFCQQSNSRLTFGAGTKLELK", "notes": "as for B11"}},
  "note": "Residue numbers refer to the chain shown, from its start.",
  "data": [
    {"molecular_target": "T1, human G-protein-coupled receptor family C group 5 member D (GPRC5D) (human, UniProt Q9NZD1 1-345)", "T1 construct": "whole, on cells; also called human GPRC5D protein", "T1 sequence (Q9NZD1 whole entry)": "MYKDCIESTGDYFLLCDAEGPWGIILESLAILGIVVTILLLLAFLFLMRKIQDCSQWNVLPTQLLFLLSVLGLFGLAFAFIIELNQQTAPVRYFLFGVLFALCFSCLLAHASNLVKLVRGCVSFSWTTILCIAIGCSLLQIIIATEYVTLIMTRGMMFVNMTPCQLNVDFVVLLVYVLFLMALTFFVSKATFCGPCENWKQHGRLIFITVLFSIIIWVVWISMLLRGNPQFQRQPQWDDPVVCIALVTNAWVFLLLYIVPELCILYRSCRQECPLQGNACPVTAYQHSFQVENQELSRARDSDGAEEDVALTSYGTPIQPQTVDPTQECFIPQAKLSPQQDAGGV", "test": "FACS, CHO-K1/GPRC5D", "values": [
      {"binder": "B1", "Bottom": 4840, "LogEC50": 0.345, "Span": 103000, "Top": 108000},
      {"binder": "B2", "Bottom": 5500, "LogEC50": 0.263, "Span": 109000, "Top": 114000},
      {"binder": "B3", "Bottom": 4230, "LogEC50": 0.231, "Span": 101000, "Top": 105000},
      {"binder": "B4", "Bottom": 3620, "LogEC50": 0.378, "Span": 106000, "Top": 110000},
      {"binder": "B5", "Bottom": 1230, "LogEC50": 0.27, "Span": 90500, "Top": 91700},
      {"binder": "B6", "Bottom": 5980, "LogEC50": 0.374, "Span": 99500, "Top": 105000},
      {"binder": "B7", "Bottom": 4020, "LogEC50": 0.318, "Span": 93700, "Top": 97700},
      {"binder": "B8", "Bottom": 4990, "LogEC50": 0.365, "Span": 99600, "Top": 105000},
      {"binder": "B9", "Bottom": 4600, "LogEC50": 0.341, "Span": 100000, "Top": 105000},
      {"binder": "B10", "Bottom": 6250, "LogEC50": 0.287, "Span": 96400, "Top": 103000}
    ]},
    {"molecular_target": "T1, human G-protein-coupled receptor family …", "test": "FACS, CHO-K1/human GPRC5D, hybridoma supernatant", "method": "Antibodies harvested from the supernatants of the hybridomas were tested for their binding to the human GPRC5D protein expressed on CHO K1 cells was tested. CHO—K1 cells stably expressed human GPRC5D, were harvested from flasks. 100 µl of 1×10^6 cells/ml of cells were incubated with murine antibodies in 3-fold serial dilutions for 30 minutes on ice. After being washed with 200 µl of FACS buffer twice, cells were incubated with secondary antibody for 30 minutes on ice. Cells were washed with 200 µl of FACS buffer twice and transferred to BD Falcon 5 ml tube and analyzed by FACS.", "values": [
      {"binder": "B11", "Bottom": 46100, "LogEC50": 0.454, "Span": 789000, "Top": 835000},
      {"binder": "B12", "Bottom": 2740, "LogEC50": 1.02, "Span": 919000, "Top": 922000},
      {"binder": "B13", "Bottom": 10900, "LogEC50": 0.592, "Span": "1.75e+06", "Top": "1.76e+06"},
      {"binder": "B14", "Bottom": 6870, "LogEC50": 0.912, "Span": "1.42e+06", "Top": "1.43e+06"},
      {"binder": "B15", "Bottom": 24000, "LogEC50": 0.947, "Span": "1.76e+06", "Top": "1.79e+06"},
      {"binder": "B16", "Bottom": 25400, "LogEC50": 0.511, "Span": "1.17e+06", "Top": "1.2e+06"},
      {"binder": "B17", "Bottom": -14700, "LogEC50": 0.964, "Span": "2.07e+06", "Top": "2.05e+06"},
      {"binder": "B18", "Bottom": 5570, "LogEC50": 0.993, "Span": 723000, "Top": 729000},
      {"binder": "B19", "Bottom": 68600, "LogEC50": 0.62, "Span": "1.54e+06", "Top": "1.61e+06"},
      {"binder": "B20", "Bottom": 20400, "LogEC50": 0.874, "Span": 852000, "Top": 873000},
      {"binder": "B21", "Bottom": 52700, "LogEC50": 0.225, "Span": 625000, "Top": 678000},
      {"binder": "B22", "Bottom": 43400, "LogEC50": 0.738, "Span": "1.42e+06", "Top": "1.46e+06"},
      {"binder": "B23", "Bottom": 57000, "LogEC50": 0.654, "Span": "1.45e+06", "Top": "1.51e+06"},
      {"binder": "B24", "Bottom": -13300, "LogEC50": 0.884, "Span": "1.43e+06", "Top": "1.41e+06"}
    ]}
  ]
}
